# Source: article PMC8849478
# Key:
# [1] = target: human haptoglobin, mixture of phenotypes Hp2-1 and Hp2-2 (human) (UniProt P00738); experiment: stopped-flow fluorescence spectrometry; Hp (0.25 μM, Hb tetramer binding basis) rapidly mixed with excess Hb/metHb at various concentrations; excitation 285 nm, emission 310 nm; monoexponential fit gives pseudo first order constants, linear regression against Hb/metHb concentration gives the bimolecular rate constant
# human hemoglobin (human) = human hemoglobin (human) (UniProt P69905); experiment: SEC; tetramer to dimers; SEC-HPLC of samples at 1.25, 2.5, 5, 10 and 20 μM (heme basis) after incubation in 0.1 M PBS pH 7.4 at 4°C for one week; fraction of tetramers by deconvolution, Kd from the intercept of the linearised plot (Eq 3)
# [2] = target: human methemoglobin (human) (UniProt P69905); experiment: as above
# Sequence of bovine hemoglobin (P01966 whole entry): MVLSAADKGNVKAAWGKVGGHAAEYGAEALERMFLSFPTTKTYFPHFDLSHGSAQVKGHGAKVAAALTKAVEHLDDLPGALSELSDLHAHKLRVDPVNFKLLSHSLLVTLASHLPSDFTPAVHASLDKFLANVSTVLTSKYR
# Sequence of bovine hemoglobin (P02070 whole entry): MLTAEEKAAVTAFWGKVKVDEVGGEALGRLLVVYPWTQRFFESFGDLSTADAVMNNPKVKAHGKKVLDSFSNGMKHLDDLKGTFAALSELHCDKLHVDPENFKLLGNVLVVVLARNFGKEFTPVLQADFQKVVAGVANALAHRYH
# Sequence of bovine methemoglobin (P01966 whole entry): as the sequence (P01966 whole entry) above
# Sequence of bovine methemoglobin (P02070 whole entry): as the sequence (P02070 whole entry) above
# Sequence of human methemoglobin, P69905 1-142; P68871 1-147 (complex; other documents disagree on this pair) (P69905 whole entry): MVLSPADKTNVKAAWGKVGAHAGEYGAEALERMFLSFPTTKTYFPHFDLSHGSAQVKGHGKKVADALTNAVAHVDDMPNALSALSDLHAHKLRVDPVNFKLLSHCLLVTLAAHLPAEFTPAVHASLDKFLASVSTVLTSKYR
# Sequence of human methemoglobin, P69905 1-142; P68871 1-147 (complex; other documents disagree on this pair) (P68871 whole entry): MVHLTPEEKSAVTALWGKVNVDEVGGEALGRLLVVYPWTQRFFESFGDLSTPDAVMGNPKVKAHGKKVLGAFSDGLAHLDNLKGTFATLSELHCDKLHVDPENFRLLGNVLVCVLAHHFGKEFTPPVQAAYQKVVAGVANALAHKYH
# Sequence of human hemoglobin, P69905 1-142; P68871 1-147 (complex; other documents disagree on this pair) (P69905 whole entry): as the sequence (P69905 whole entry) above
# Sequence of human hemoglobin, P69905 1-142; P68871 1-147 (complex; other documents disagree on this pair) (P68871 whole entry): as the sequence (P68871 whole entry) above
kon [1] [M⁻¹ s⁻¹],Substance,other results
147000,bovine hemoglobin (from UniProt P01966 1-142; P02070 1-145) (complex),–
140000,bovine methemoglobin (from UniProt P01966 1-142; P02070 1-145) (complex),–
–,"human hemoglobin, P69905 1-142; P68871 1-147 (complex; other documents disagree on this pair)",Kd (human hemoglobin (human)): 230 nM
–,"human methemoglobin, P69905 1-142; P68871 1-147 (complex; other documents disagree on this pair)",Kd [2]: 450 nM
